# Source: paper PMC5973842
# Legend:
# eNP-2 (Ebola virus) = test: fluorescence polarization
# eNP WT (Ebola virus) = test: fluorescence polarization
# eNP-3 (Ebola virus) = test: fluorescence polarization
# [1] = biological target: FITC-labeled eVP35 NPBP (Ebola virus); test: fluorescence polarisation
Substance,Kd (eNP-2 (Ebola virus)),Kd (eNP WT (Ebola virus)),Kd (eNP-3 (Ebola virus)),Kd [1]
20 nt ssRNA,68 nM,13 nM,15 nM,
"Ebola virus nucleoprotein, full-length wildtype construct (from UniProt P18272 1-739) (natural protein)",,,,10.6 nM
eNP-2 (Ebola virus nucleoprotein N-terminal construct lacking the first 24 residues) (domain or fragment),,,,1.9 nM
eNP-3 (Ebola virus nucleoprotein N-terminal construct that includes the first 24 residues) (domain or fragment),,,,12.8 nM
